According to IntAct's records for PubMed 29892012:

B1: E3 ubiquitin-protein ligase LNX (Homo sapiens), Q8TBB1 (parent)
chain: MNQPESANDPEPLCAVCGQAHSLEENHFYSYPEEVDDDLICHICLQALLDPLDTPCGHTYCTLCLTNFLVEKDFCPMDRKPLVLQHCKKSSILVNKLLNKLLVTCPFREHCTQVLQRCDLEHHFQTSCKGASHYGLTKDRKRRSQDGCPDGCASLTATAPSPEVSAAATISLMTDEPGLDNPAYVSSAEDGQPAISPVDSGRSNRTRARPFERSTIRSRSFKKINRALSVLRRTKSGSAVANHADQGRENSENTTAPEVFPRLYHLIPDGEITSIKINRVDPSESLSIRLVGGSETPLVHIIIQHIYRDGVIARDGRLLPGDIILKVNGMDISNVPHNYAVRLLRQPCQVLWLTVMREQKFRSRNNGQAPDAYRPRDDSFHVILNKSSPEEQLGIKLVRKVDEPGVFIFNVLDGGVAYRHGQLEENDRVLAINGHDLRYGSPESAAHLIQASERRVHLVVSRQVRQRSPDIFQEAGWNSNGSWSPGPGERSNTPKPLHPTITCHEKVVNIQKDPGESLGMTVAGGASHREWDLPIYVISVEPGGVISRDGRIKTGDILLNVDGVELTEVSRSEAVALLKRTSSSIVLKALEVKEYEPQEDCSSPAALDSNHNMAPPSDWSPSWVMWLELPRCLYNCKDIVLRRNTAGSLGFCIVGGYEEYNGNKPFFIKSIVEGTPAYNDGRIRCGDILLAVNGRSTSGMIHACLARLLKELKGRITLTIVSWPGTFL
partner: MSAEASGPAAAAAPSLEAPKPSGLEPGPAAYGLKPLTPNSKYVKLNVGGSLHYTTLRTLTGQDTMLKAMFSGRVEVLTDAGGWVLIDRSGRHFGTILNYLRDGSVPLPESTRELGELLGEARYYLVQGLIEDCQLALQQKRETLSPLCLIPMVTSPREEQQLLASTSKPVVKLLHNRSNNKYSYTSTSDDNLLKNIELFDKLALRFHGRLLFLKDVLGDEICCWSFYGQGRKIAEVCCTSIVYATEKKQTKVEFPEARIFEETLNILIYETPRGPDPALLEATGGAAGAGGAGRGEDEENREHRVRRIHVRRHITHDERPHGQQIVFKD
B2: Cell division cycle-associated 7-like protein (Homo sapiens), Q96GN5 (parent)
chain: MELATRYQIPKEVADIFNAPSDDEEFVGFRDDVPMETLSSEESCDSFDSLESGKQQDVRFHSKYFTEELRRIFIEDTDSETEDFAGFTQSDLNGKTNPEVMVVESDLSDDGKASLVSEEEEDEEEDKATPRRSRSRRSSIGLRVAFQFPTKKLANKPDKNSSSEQLFSSARLQNEKKTILERKKDCRQVIQREDSTSESEDDSRDESQESSDALLKRTMNIKENKAMLAQLLAELNSMPDFFPVRTPTSASRKKTVRRAFSEGQITRRMNPTRSARPPEKFALENFTVSAAKFAEEFYSFRRRKTIGGKCREYRRRHRISSFRPVEDITEEDLENVAITVRDKIYDKVLGNTCHQCRQKTIDTKTVCRNQGCCGVRGQFCGPCLRNRYGEDVRSALLDPDWVCPPCRGICNCSYCRKRDGRCATGILIHLAKFYGYDNVKEYLESLQKELVEDN
partner: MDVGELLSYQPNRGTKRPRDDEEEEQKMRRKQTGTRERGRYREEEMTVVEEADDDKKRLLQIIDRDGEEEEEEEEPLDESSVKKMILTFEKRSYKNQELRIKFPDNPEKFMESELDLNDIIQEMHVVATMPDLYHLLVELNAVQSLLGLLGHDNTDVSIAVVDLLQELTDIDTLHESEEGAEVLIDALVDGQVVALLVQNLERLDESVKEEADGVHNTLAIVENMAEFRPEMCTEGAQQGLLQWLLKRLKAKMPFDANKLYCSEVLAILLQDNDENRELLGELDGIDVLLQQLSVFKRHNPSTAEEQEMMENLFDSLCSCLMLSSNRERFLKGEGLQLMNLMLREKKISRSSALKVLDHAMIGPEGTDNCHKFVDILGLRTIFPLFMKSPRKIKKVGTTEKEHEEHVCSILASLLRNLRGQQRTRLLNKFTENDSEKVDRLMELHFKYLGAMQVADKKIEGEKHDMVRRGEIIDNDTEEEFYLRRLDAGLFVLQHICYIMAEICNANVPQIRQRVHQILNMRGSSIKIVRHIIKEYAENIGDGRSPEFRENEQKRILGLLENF
B3: Myotubularin-related protein 9 (Homo sapiens), Q96QG7 (parent)
chain: MEFAELIKTPRVDNVVLHRPFYPAVEGTLCLTGHHLILSSRQDNTEELWLLHSNIDAIDKRFVGSLGTIIIKCKDFRIIQLDIPGMEECLNIASSIEALSTLDSITLMYPFFYRPMFEVIEDGWHSFLPEQEFELYSSATSEWRLSYVNKEFAVCPSYPPIVTVPKSIDDEALRKVATFRHGGRFPVLSYYHKKNGMVIMRSGQPLTGTNGRRCKEDEKLINATLRAGKRGYIIDTRSLNVAQQTRAKGGGFEQEAHYPQWRRIHKSIERYHILQESLIKLVEACNDQTHNMDRWLSKLEASNWLTHIKEILTTACLAAQCIDREGASILIHGTEGTDSTLQVTSLAQIILEPRSRTIRGFEALIEREWLQAGHPFQQRCAQSAYCNTKQKWEAPVFLLFLDCVWQILRQFPCSFEFNENFLIMLFEHAYASQFGTFLGNNESERCKLKLQQKTMSLWSWVNQPSELSKFTNPLFEANNLVIWPSVAPQSLPLWEGIFLRWNRSSKYLDEAYEEMVNIIEYNKELQAKVNILRRQLAELETEDGMQESP
partner: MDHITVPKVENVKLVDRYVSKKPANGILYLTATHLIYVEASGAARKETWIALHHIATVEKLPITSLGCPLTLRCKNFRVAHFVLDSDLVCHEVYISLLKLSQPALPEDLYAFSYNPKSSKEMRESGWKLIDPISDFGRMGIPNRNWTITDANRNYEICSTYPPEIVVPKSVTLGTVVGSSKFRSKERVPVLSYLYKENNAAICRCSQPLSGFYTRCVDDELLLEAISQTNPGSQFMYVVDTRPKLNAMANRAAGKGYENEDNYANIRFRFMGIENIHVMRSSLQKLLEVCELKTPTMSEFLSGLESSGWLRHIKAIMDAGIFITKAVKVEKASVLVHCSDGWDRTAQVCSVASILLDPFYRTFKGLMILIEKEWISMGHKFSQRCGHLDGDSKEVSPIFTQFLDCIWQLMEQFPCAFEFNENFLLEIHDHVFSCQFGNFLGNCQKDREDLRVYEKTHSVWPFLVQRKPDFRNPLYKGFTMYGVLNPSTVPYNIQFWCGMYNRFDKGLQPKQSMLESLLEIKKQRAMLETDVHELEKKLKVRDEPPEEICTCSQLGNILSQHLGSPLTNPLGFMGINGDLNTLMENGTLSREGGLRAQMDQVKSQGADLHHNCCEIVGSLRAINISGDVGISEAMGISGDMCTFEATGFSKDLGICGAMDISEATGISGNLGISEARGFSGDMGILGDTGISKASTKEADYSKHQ
B4: Glutaredoxin-3 (Homo sapiens), O76003 (parent)
chain: MAAGAAEAAVAAVEEVGSAGQFEELLRLKAKSLLVVHFWAPWAPQCAQMNEVMAELAKELPQVSFVKLEAEGVPEVSEKYEISSVPTFLFFKNSQKIDRLDGAHAPELTKKVQRHASSGSFLPSANEHLKEDLNLRLKKLTHAAPCMLFMKGTPQEPRCGFSKQMVEILHKHNIQFSSFDIFSDEEVRQGLKAYSSWPTYPQLYVSGELIGGLDIIKELEASEELDTICPKAPKLEERLKVLTNKASVMLFMKGNKQEAKCGFSKQILEILNSTGVEYETFDILEDEEVRQGLKAYSNWPTYPQLYVKGELVGGLDIVKELKENGELLPILRGEN
partner: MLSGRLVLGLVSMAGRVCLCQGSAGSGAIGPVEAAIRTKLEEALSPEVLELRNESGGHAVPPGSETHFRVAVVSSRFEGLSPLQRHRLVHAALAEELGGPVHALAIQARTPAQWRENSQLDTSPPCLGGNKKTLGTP

Variants of: B1
Conditions: with bacd1_human KCTD13, Q8WZ19

effect of a mutation on the interaction | Variant
disrupting interaction strength | E295K

Variants of: B2
Conditions: with ctbl1_human CTNNBL1, Q8WYA6

effect of a mutation on the interaction | Variant
with no effect | R268H

Variants of: B3
Conditions: with mtmr8_human MTMR8, Q96EF0

effect of a mutation on the interaction | Variant
with no effect | R359S

Variants of: B4
Conditions: with bola1_human BOLA1, Q9Y3E2

effect of a mutation on the interaction | Variant
with no effect | P145A
